What was measured:
Experiment in all cases: ELISA, target coated at 1 μg/ml, TsM titrated from 10 μg/ml
CD19-CD3-4-1BBL TsM_M = target: T1, CD19-CD3-4-1BBL TsM_M
T1 construct: monomer confirmed by SDS-PAGE and mass spectrometry; also called 单体形式的抗CD19/抗CD3/4-1BBL三特异性分子; 单体形式的TiTE三特异分子

CD19-CD3-CD70 TsM_D = target: T2, CD19-CD3-CD70 TsM_D
T2 construct: Disulfide-linked, glycosylated dimer; also called 二聚体形式的抗CD19/抗CD3/CD70三特异性分子

CD19-CD3-4-1BBL TsM_D = target: T3, CD19-CD3-4-1BBL TsM_D
T3 construct: Two chains joined by disulfide bonds of the IgD hinge (dimer by non-reducing SDS-PAGE and mass spectrometry); also called 二聚体形式的抗CD19/抗CD3/4-1BBL三特异性分子; 二聚体形式的TiTE三特异分子

CD19-CD3-B7RP-1 TsM_M = target: T4, CD19-CD3-B7RP-1 TsM_M
T4 construct: CHO-S expressed, N-glycosylated monomer; also called 单体形式的抗CD19/抗CD3/B7RP-1三特异性分子

CD19-CD3-B7RP-1 TsM_D = target: T5, CD19-CD3-B7RP-1 TsM_D
T5 construct: Disulfide-linked, glycosylated dimer; also called 二聚体形式的抗CD19/抗CD3/B7RP-1三特异性分子

CD19-CD3-OX40L TsM_M = target: T6, CD19-CD3-OX40L TsM_M
T6 construct: CHO-S expressed, N-glycosylated monomer; also called 单体形式的抗CD19/抗CD3/OX40L三特异性分子

CD19-CD3-OX40L TsM_D = target: T7, CD19-CD3-OX40L TsM_D
T7 construct: Disulfide-linked, glycosylated dimer; also called 二聚体形式的抗CD19/抗CD3/OX40L三特异性分子

CD19-CD3-GITRL TsM_M = target: T8, CD19-CD3-GITRL TsM_M
T8 construct: CHO-S expressed, N-glycosylated monomer; also called 单体形式的抗CD19/抗CD3/GITRL三特异性分子

CD19-CD3-GITRL TsM_D = target: T9, CD19-CD3-GITRL TsM_D
T9 construct: Disulfide-linked, glycosylated dimer; also called 二聚体形式的抗CD19/抗CD3/GITRL三特异性分子

CD19-CD3-CD70 TsM_M = target: T10, CD19-CD3-CD70 TsM_M
T10 construct: CHO-S expressed, N-glycosylated monomer; also called 单体形式的抗CD19/抗CD3/CD70三特异性分子

Measured: binding result

B1: 人类CD19-hFc融合蛋白 (Fc fusion, human, UniProt P15391 20-291, looked up)
chain: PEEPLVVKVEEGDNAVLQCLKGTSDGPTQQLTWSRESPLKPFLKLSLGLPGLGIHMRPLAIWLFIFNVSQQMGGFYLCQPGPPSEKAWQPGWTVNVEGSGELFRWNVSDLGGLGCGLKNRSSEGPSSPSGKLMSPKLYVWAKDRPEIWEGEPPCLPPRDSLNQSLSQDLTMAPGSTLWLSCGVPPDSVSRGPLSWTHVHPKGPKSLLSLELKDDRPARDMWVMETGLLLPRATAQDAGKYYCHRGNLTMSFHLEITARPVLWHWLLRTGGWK
notes: Bought from 吴江近岸蛋白质科技有限公司; Coated at 1 μg/ml in ELISA; also called 重组抗原CD19-hFc; 抗原CD19-hFc; not shown: human Fc (hFc)
binds: CD19-CD3-4-1BBL TsM_M | CD19-CD3-CD70 TsM_D | CD19-CD3-4-1BBL TsM_D | CD19-CD3-B7RP-1 TsM_M | CD19-CD3-B7RP-1 TsM_D | CD19-CD3-OX40L TsM_M | CD19-CD3-OX40L TsM_D | CD19-CD3-GITRL TsM_M | CD19-CD3-GITRL TsM_D | CD19-CD3-CD70 TsM_M

B2: 人类ICOS-hFc融合蛋白 (Fc fusion)
chain: EINGSANYEMFIFHNGGVQILCKYPDIVQQFKMQLLKGGQILCDLTKTKGSGNTVSIKSLKFCHSQLSNNSVSFFLYNLDHSHANYYFCNLSIFDPPPFKVTLTGGYLHIYESQLCCQLK
notes: Bought from 吴江近岸蛋白质科技有限公司; also called 重组蛋白ICOS-hFc; T细胞正共刺激分子ICOS-hFc; not shown: human Fc (hFc)
binds: CD19-CD3-B7RP-1 TsM_M | CD19-CD3-B7RP-1 TsM_D

B3: 人类GITR-hFc融合蛋白 (Fc fusion)
chain: QRPTGGPGCGPGRLLLGTGTDARCCRVHTTRCCRDYPGEECCSEWDCMCVQPEFHCGDPCCTTCRHHPCPPGQGVQSQGKFSFGFQCIDCASGTFSGGHEGHCKPWTDCTQFGFLTVFPGNKTHNAVCVPGSPPAE
notes: Bought from 吴江近岸蛋白质科技有限公司; also called 重组蛋白GITR-hFc; T细胞正共刺激分子GITR-hFc; not shown: human Fc (hFc)
binds: CD19-CD3-GITRL TsM_M | CD19-CD3-GITRL TsM_D

Reference: patent publication CN108264558A (SHANGHAI NOVOPROTEIN BIOTECHNOLOGY CO LTD, dated 2018)
